Experimental data from US10465009B2, “BCMA antigen binding proteins” (Amgen Inc., priority 2012, dated 2019).

How the values were obtained:
BCMA = biological target: T1, BCMA (Homo sapiens, UniProt Q02223, N81S); experiment: FACS binding on cells transiently transfected to express full length BCMA; details: MFI vs negative control
T1 construct: cells transiently transfected to express full length BCMA, TACI, or BAFF-R; expressed in transfected cells
T1 sequence (Q02223 1-184 N81S): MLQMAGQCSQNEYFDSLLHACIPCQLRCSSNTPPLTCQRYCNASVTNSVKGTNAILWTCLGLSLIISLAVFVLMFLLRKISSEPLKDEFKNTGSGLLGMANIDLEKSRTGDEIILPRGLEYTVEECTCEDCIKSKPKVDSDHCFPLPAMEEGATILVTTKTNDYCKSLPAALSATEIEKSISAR
Procedure: An important criterion is exquisite selectivity for wild-type human BCMA expressed on the surface of cells. FACS binding on cells transiently transfected to express full length BCMA, TACI, or BAFF-R was performed using standard techniques. Approximately 40×10^6 of the transiently-transfected target cells were resuspended in a staining solution (2% goat serum, 1% rabbit serum, 0.02% azide in PBS) and aliquoted into round-bottom, 96-well plate (Corning Incorp., Acton, Mass.) as per the experiment design. The cells were incubated at 4 degrees celsius for 30 minutes to block non-specific sites. The antibodies were titrated into the staining solution. The cells were rinsed in a rinse solution (PBS+0.02% azide) by resuspending the cells in 200 ul/well. The cells were centrifuged at 1500 rpm at 4 degrees celsius for 7 minutes. The rinse solution was removed and the rinse step was repeated. The cells were resuspended in the appropriate antibody solution (see the matrix in TABLE 4) at 30 ul/well and incubated at 4 degrees celsius for 30 minutes. […] For the mouse IgG1 negative control and the two mouse antibodies (1.183 and 1.288), the secondary reagent was an anti-mouse IgG-PE conjugate (BD Pharmingen Cat. 550589). The cells/antibodies were rinsed as described above to remove excess/unbound antibody. […] Samples were read at 532 nm wavelength on FACS. […]

huBCMA on H929 cells = biological target: T2, huBCMA on H929 cells (Homo sapiens, UniProt Q02223, N81S); experiment: FACS binding to native BCMA on H929 myeloma cells; details: flow cytometry; muteins relative to parental 2A1
T2 construct: endogenous in cells; host or cells: H929 human multiple myeloma cell line
T2 sequence (Q02223 1-184 N81S): T1 sequence (Q02223 1-184 N81S)
Procedure: Approximately 10 to 40×10^6 of H929 myeloma cells were resuspended in a staining solution (2% goat serum, 1% rabbit serum, 0.02% azide in PBS) and aliquoted into round-bottom, 96-well plate (Corning Incorp., Acton, Mass.) as per the experiment design. The cells were incubated at 4 degrees celsius for 30 minutes to block non-specific sites. The antibodies were titrated into the staining solution. The cells were rinsed in a rinse solution (PBS+0.02% azide) by resuspending the cells in 200 ul/well. The cells were centrifuged at 1500 rpm at 4 degrees celsius for 7 minutes. The rinse solution was removed and the rinse step was repeated. […] The huIgG1 negative control's secondary reagent was a biotinylated anti-huIgG (Jackson Labs, Bar Harbor, Me., Cat. 109-065-098), followed by a streptavidin-phycoerythrin (SA-PE) conjugate (BD Pharmingen, San Diego, Calif., Cat. 554061). […] The cells/antibodies were rinsed as described above to remove excess/unbound antibody. […] Samples were read at 532 nm wavelength on FACS.
To further characterize the engineered mutein antibodies, they were tested for the ability to bind BCMA by FACS analysis. […] The supernatants were removed and the cell pellets were resuspended in 0.2 mL/tube 4% paraformaldehyde in PBS and analyzed by flow cytometry

B1: 1E1: fully human anti-huBCMA mAb, Vh SEQ ID NO:212, Vl SEQ ID NO:246 (antibody, V domains shown)
VH: QVQLVQSGAEVKKPGASVKVSCKASGYTFTGHYIHWVRQAPGQGLEWMGWIYPNSGGTNYAQKFQGRVTMTRDTSISTAYMELSRLRSDDSAVYYCAREGMVTGDYYYYRMDVWGQGTTVIVSS
VL: QPVLTQPPSASASLGASVTLTCSLSSGYSNYKVDWYQQRPGKGPRFVMRVGIGGIVGSKGDGIPDRFSVLGSGLNRYLTIKNIQEEDESDFHCGADHGSGNNFVYVFGTGTKVTVLG
BCMA
  BCMA (FACS binding): + (A sample was considered positive for binding if the MFI was two times the negative control value)
huBCMA on H929 cells
  binding to BCMA on H929 cells: bound to human BCMA
